Experimental data as given in paper PMC3436176 (The Journal of Biological Chemistry, 2012).

Biological target: T1, GPVI-Fc2 (GPVI dimer) (Homo sapiens, UniProt Q9HCN6)
T1 sequence (Q9HCN6 21-214 limits assumed): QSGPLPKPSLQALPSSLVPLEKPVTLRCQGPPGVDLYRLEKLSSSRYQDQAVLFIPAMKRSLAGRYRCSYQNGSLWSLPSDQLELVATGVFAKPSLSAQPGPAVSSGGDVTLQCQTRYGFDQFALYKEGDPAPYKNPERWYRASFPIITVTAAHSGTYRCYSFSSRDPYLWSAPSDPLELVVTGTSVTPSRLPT
Assay: ELISA: GPVI dimer binding to immobilized collagenous substrates

Kd (monomer)/Kd (dimer) (binding to collagenous substrates): 236.7 | Hill coefficient for dimer binding (mean ± S.E., n = 4-12 as printed): 1.16 ± 0.11
B1: Collagen type III: Pepsin-treated bovine type III collagen from Koken (protein)
chain: EYEAYDVKSGVAGGGIAGYPGPAGPPGPPGPPGTSGHPGAPGAPGYQGPPGEPGQAGPAGPPGPPGAIGPSGKDGESGRPGRPGPRGFPGPPGMKGPAGMPGFPGMKGHRGFDGRNGEKGEPGAPGLKGENGVPGEDGAPGPMGPRGAPGERGRPGLPGAAGARGNDGARGSDGQPGPPGPPGTAGFPGSPGAKGEVGPAGSPGSSGAPGQRGEPGPQGHAGAPGPPGPPGSDGSPGGKGEMGPAGIPGAPGLIGARGPPGPPGTNGVPGQRGAAGEPGKNGAKGDPGPRGERGEAGSPGIAGPKGEDGKDGSPGEPGANGLPGAAGERGVPGFRGPAGANGLPGEKGPPGDRGGPGPAGPRGVAGEPGRNGLPGGPGLRGIPGSPGGPGSNGKPGPPGSQGETGRPGPPGSPGPRGQPGVMGFPGPKGNDGAPGKNGERGGPGGPGPQGPAGKNGETGPQGPPGPTGPSGDKGDTGPPGPQGLQGLPGTSGPPGENGKPGEPGPKGEAGAPGIPGGKGDSGAPGERGPPGAGGPPGPRGGAGPPGPEGGKGAAGPPGPPGSAGTPGLQGMPGERGGPGGPGPKGDKGEPGSSGVDGAPGKDGPRGPTGPIGPPGPAGQPGDKGESGAPGVPGIAGPRGGPGERGEQGPPGPAGFPGAPGQNGEPGAKGERGAPGEKGEGGPPGAAGPAGGSGPAGPPGPQGVKGERGSPGGPGAAGFPGGRGPPGPPGSNGNPGPPGSSGAPGKDGPPGPPGSNGAPGSPGISGPKGDSGPPGERGAPGPQGPPGAPGPLGIAGLTGARGLAGPPGMPGARGSPGPQGIKGENGKPGPSGQNGERGPPGPQGLPGLAGTAGEPGRDGNPGSDGLPGRDGAPGAKGDRGENGSPGAPGAPGHPGPPGPVGPAGKSGDRGETGPAGPSGAPGPAGSRGPPGPQGPRGDKGETGERGAMGIKGHRGFPGNPGAPGSPGPAGHQGAVGSPGPAGPRGPVGPSGPPGKDGASGHPGPIGPPGPRGNRGERGSEGSPGHPGQPGPPGPPGAPGPCCGAGGVAAI
